# Results published in the supplement of paper PMC11502859.
# Several values for one entry are separate records, joined by “and”; a condition that tells them apart may be missing. Equal values may be shown once.
# Test system: HEK293T
# Assay: median enrichment of reporter reads in eGFP-reduced (low/intermediate) vs eGFP-high sorted cells (eGFP-extension fusion abundance) (ratio); higher = stronger loss of eGFP-fusion protein abundance (more destabilising extension)
# 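Note: lentiviral eGFP-IRES-mCherry reporter pool sorted by FACS 96 h post-transduction, gated on mCherry-high cells, Illumina read counts normalized per million, median across four biological replicates.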
row,Substance,median enrichment
1,WTAERTMHPSAWWSLRDRSDDPRRLWRTI [LILRA2],6.78
2,LPFSGLQPPPGWKPWGPSGLGGAASRERAPFSGLPPQHAAS [CDR2L],5.38
3,WKLRF [TRMT11],1.93
4,KRYPLNIFVEVSYLYQRLGLPI [C7orf25],15.9
5,LKPERIVK [OR2A25],0.737
6,YVEGYKC [FIBIN],1.05
7,LGSWRHWRGQEG [Degron KLHDC3],8.96
8,CETHNFISHSDHRLLNIADRNRSLQGV [TAS2R13],2.12
9,YHPHSSSSPPNRLGSRGLLCKPTGQLWLRAHLLQRVPQPLLNLDFCPNPLPVTRSISLSLLSNGAWSTEASEAIALLAEVKRT [SLC18A3],4.57
10,LASDLPNDLLLAQLDARQARLSLC [BNC2],4.33
11,YAKSRCTQHVLGMQPQEVPDLKQPDSYLA [GREM1],22.9
12,WLVGLGSSARTSSPALAVVVQALQSAAGLFIKGIYICK [NRN1L],7.25
13,LRWLACWAWGLLTDSMEQGWAVCAHAQHALRGGGGGRGFLMSVQELKVSGVLPRICPTPHDKTELCNKQYQFILAVGFCFFSS [WDR6],7.93
14,YVI [UPRT],1.22
15,KNF [PLXDC2],0.62
16,WWWWWWWWW [Trp09],3.84
17,LSSQLPGPLP [COMMD9],0.399
18,RCDQVALGRDPRVFMRHLKLIKELRLELIWCSP [KCNC2],10.9
19,WGWGWTNNQARAEGFMERPLGDPR [S1PR2],3.36
20,SGLSDCPCPAHHPVTATPKPTPTGAHCPTPAPGRHPAGHFTCCH [FERMT3],1.55
21,YPDPHRCCDLFVLSTVE [FGF14],9.33
22,YKISPLPACCKVT [CAMKK2],11.5
23,LMPSTAADLWLDLGKGSIVLGKSTRSCKLGIHS [AGBL4],8.11
24,QALSIPM [IDH3B],0.815
25,EPGNPYSFSNTGSFI [ADAM30],0.267

row,Substance,median enrichment
1,CVSYSSSMLGIPTAATMILVPERAMLLFQLV [MTMR8],23.9
2,LGLRVHTGWQEASKGS [SERPINH1],4.89
3,NLYSLESMSCVYSTIRNLILFLLLFLQKQKLILKSIIMGWGGGCPQDMQDFCRGQHRFWDCEAVSEGGQAVWMAGLMLFRIKC [SETD4],13.5
4,SPWSLVPGARASPPFHQPHRPLRGWSPLPGHGGRIPLGWSRLEKLLCQVCSLSAIVTSLPRGGDHITKRNSPFSKG [TCF21],3.11
5,SVAHSGKGVLCEHVEA [GATC],0.756
6,AAAAAAAA [Ala08],7.64
7,YGFVVQD [EPM2AIP1],0.381
8,RGNLQAEEVSAAALLEPGRGLPVSQPGPATQDSWDIPCVTPLRPFGLAPWLSLREVALRLAIYIYNLFT [HK3],4.11
9,RRLARKMPRGG [TRAPPC3L],5.87
10,YPQPPPHHPLPKSSACSPGERTAGLSY [COTL1],11.5
11,SGPGIHVGGRGRGGRREGRGEIHTVDTLTSWPKSLPQDLPDLHGQASYGGVSISFFLFLFPGLRASWGPRFTNSPTPLKLWRR [AQP1],5.75
12,LRRRMSLRAPSWSGPRHPGTSALPPPALLHHMSS [ADHFE1],18.5
13,RSQLCSGQACSLRTLTTLDLELGTCGHSSSPGCIP [CIITA],42.6
14,DDDD [Asp04],0.37
15,CGRTSALSDRTLRAMLPCHP [MRGPRX3],6.32
16,YNLIASTLKDKTSNSHLL [KIF9],1.28
17,LAPRAEKMLGTHPAPPSTNTSGWGRGRTL [VPS26B],1.3
18,WQDLLTSS [VN1R4],0.623
19,LSYQTTY [USP51],1.11
20,EGN [CYTL1],0.312
21,SSSSSSS [Ser07],0.279
22,REDHGLSVPQSQLPDG [TBC1D10C],1.36
23,WPMLNTHV [NABP1],0.435
24,QLSLPPQPGSPALESSVLHAEDAPSLDWSGLLPNDIAQRLWSRHPAEWGPRGCQLGALPLAATLWSGRVLHHQEDPILSSVSC [INAFM1],4.8
25,YYHMFSWYVN [ABHD10],17.6

row,Substance,median enrichment
1,WGSEPRPSGFTCLVKAFVMISLN [KRTAP5-10],10.1
2,LIIMLKSALTFLR [MCF2L2],15.2
3,CEQ [PRF1],12.2
4,SRRRLGLCSQGLWLMMIDAPFSHALSSHLASAGQNPSPDVCNLCLEYLGVVEEQIIPSKHQALGFLEQAESQ [USP39],3.94
5,LSGAQE [HELLS],0.562
6,RVAYFMQS [PDE5A],7.9
7,SALELLNLCPWGFHPNQCQGPPLPPSK [ACY1],2
8,LLECEISVGQTTRVCVCVLMESSLVVSSSFFLVTVLLNLIK [PET117],9.64
9,WRFPLPSSQPP [MEF2D],2.36
10,QTA [FMR1],0.337
11,RRPRAPHLSRSLMPQGAQ [SLC44A2],1.11
12,LTYLSLSRSQAVRGNRSHLLSLQASVCLCLRTWILDFNDAVDNDGRKGVGC [MGA],8.5
13,SPQGRAATRRDMPGRGQDKMQTFFFF [APOL1],1.16
14,KAGTDLGPKIPFQRN [RBMXL2],0.175
15,RDCACI [CPSF3],0.439
16,LVLIPTFPCDLGCRCSCCKMEANLTGVL [ADD2],2.88
17,QCLPERVVRWCHVGEQVSFRTQRRPPFCK [ACTR3B],5.17
18,SNGSI [PHF20L1],0.369
19,YVGRSPRPLPSSGDNQQ [CPNE9],0.56
20,LVSCLKGGNRKSRLLSVKFVLPVCC [PCMTD2],7.69
21,RACQEVTTSLLPAAWARTALRFEGNMDPFGPAGTGHIPHPRATMGVGNFLVCFLIYL [PLEKHH3],8.55
22,RCLPRAVDARAPVHTHTSTLTSPQCCASSTRFYSSQNCILNAQETFKLFMKRCVYREEEGANAVRIMFRL [UBE2QL1],11.9
23,SVLPSVTSNSGKRKLK [STARD13],0.451
24,WGRDSVPLAVLPSLLVCQASPPTTPHQATPAASAFLGAERQPRPPVPSPPSHHRSSAPGRTVWPLPVPAMGSGWTPWAPPIAK [CAPN1],7.5
25,EILGSKYTSLFKNSNLI [OR10G4],11.8

row,Substance,median enrichment
1,LKLQLNRGSRKLLSLRGGV [MIP],14.1
2,SYEQNKTLRKINRQGSDLFLKNLRSVDSQED [PRKACB],2.01
3,YPNIIQGTEIKELRFKHKCLAQTYL [EEF1E1],7.38
4,LAEEVGMGALCLLC [FGA],11.4
5,YPVLEGTGGIIFNDLLN [NXPE3],1.65
6,YEYA [BOD1L2],0.662
7,WSQFPVTRTILATLFESIQVVWPMILLLTYLSTSSGPCPFGKLSFFLLHWGTGC [CLEC5A],9.24
8,RNEYMTGNNGDCL [CTPS2],0.464
9,YVPVSPFIAAFPWGRQ [CXCR5],6.43 and 2.95
10,WEKSYKCKECGKPLDDPQTLMNMRKFIL [ZNF141],11.7
11,WSPLSRDSGKGGFLHPTPLLPWL [KIAA1191],5.6
12,WKRLGRGSGRGLSPPEAGKESLFSHMIFRVLETHSCRSCRTLEFLGNCPAS [GPR83],13.9
13,RVYTRTMWYVARPGPGVRLGQPQLSLPLLLIQGVTRHLSLCYFWPQQEPVLGYFCPCSSQPNSGLAHPSPPPKAAEAVGGTGP [KCNJ11],4.66
14,YKP [ATP6V1A],0.175
15,YTPLCHFSGDPAFLIWK [CENPE],5.97
16,KFGAQTSP [SPRR3],0.603
17,STSHAYQVAELGPLGQGAQATSSFVVTKQGSPFPFLLPYFVQRTRVIYIYICICLYPSPHLSDSALGTQLWAARGAVPCGSSC [SCAMP5],5.87
18,QYNF [PPP1R42],0.505
19,LFE [OR12D2],0.755
20,WLQTC [RAB39A],5.31
21,SGLWPGTRSHLAGRWLLPQFSLENPQLSTHPLPQNQFQ [RBM42],9.36
22,YMSEVQTLKKLAF [SLC7A13],4.37
23,SSS [Ser03],0.352
24,KMF [EFCAB2],0.649
25,QGGDF [KIF16B],0.225

row,Substance,median enrichment
1,QLYHYSRSSSQHHLLATWDV [GCG],16.8
2,LAQLPLSYSSATPQLPLSPAAARATARPGLSSARLTSARPAGLLKAVGRTPA [MED16],5.35
3,EGPPCICT [PDK2],1.79
4,CLSLPSSWDYSHTPPHLDNFVFLVETGFHYVGQAGLKLLSSGDPSASASQNAGITSVSHYTWFFFPLFANSHGVFWHHFQHYF [RBP1],8.27
5,RPPLSPECNKHQIPCVK [POLR2I],3.52
6,CGAARRSR [METAP1D],1.33
7,QKKPL [NFATC2],0.453
8,EATKRPGFSSCCHQLALWPRARCLPFMFPHLQSELVVPDDLRSHDLLTCPMILYFVGRSIKQLLLLLCANHSCNFCSAYLPLF [ADAMTSL1],5
9,QNLREPVV [CEP89],0.464
10,YARWLRNTGEASAFGKEICFGDDLSGNLNLLL [GBA3],5.41
11,MMM [Met03],0.831
12,SAQQSHHPASQAGGRSWGRGLSPVRLLLVKGQGPGQASSSVQVILASVVGGRESKTCSAVSSSGD [PIK3C2B],2.95
13,QIL [TMEM244],0.849
14,TTT [Thr03],0.568
15,QMTKP [RBFOX1],0.233
16,YPAALPGGGGIKRPESPGCPRRDANHPVLSTGPSSLFHPHFC [E2F7],6.7
17,YDVMLAGSPPLDPDSYG [SH3GL2],0.593
18,CACPHPPSSLPSC [PADI1],0.421
19,RERGLSSSLPAPSSPRPSSLCAW [HOXC10],4.17
20,YTLENMYVWLIKCFKLN [NOTCH2NLA],7.83
21,YCLSILVHGCFERYGRQSPGHN [MAGEC3],5.24
22,WARTLNRTPVGPARTACSAGDGSDPWSSIAPHDIESRPVFALWEENGRESGQLSQSIRAGRT [ABCC6],7.78
23,LCDCSKLWCKIPPVSSHLPDFYLGLARTSSPSYQPSLPPSSHWTPALALPLG [LY6G5C],3.74
24,LQPIYLFISLWGLTH [GUCY1A1],15.3
25,LKVLAGFT [DACH2],4.2
